Usually Kd stands for a measure of binding affinity in units of concentration. A word on the koff: it is the first-order rate constant of dissociation. What is called kon is the rate constant with which the complex forms.

Assay [1] concerns the target T1, Recombinant Human DLL4 (human, UniProt Q9NR61 27-524).
T1 construct: Bought reagent of the Biacore analyses
The experiment in a line: SPR (Biacore). The protocol: (§1) The BIACORE assay (Biacore, Inc, Piscataway, N.J.) determines the affinity of antibodies or DVD-Ig with kinetic measurements of on-rate and off-rate constants. Binding of antibodies or DVD-Ig to a target antigen (for example, a purified recombinant target antigen) was determined by surface plasmon resonance-based measurements with a Biacore® 1000 or 3000 instrument (Biacore® AB, Uppsala, Sweden) using running HBS-EP (10 mM HEPES [pH 7.4], 150 mM NaCl, 3 mM EDTA, and 0.005% surfactant P20) at 25° C. All chemicals were obtained from Biacore® AB (Uppsala, Sweden) or otherwise from a different source as described in the text. For example, approximately 5000 RU of goat anti-mouse IgG, (Fcγ), fragment specific polyclonal antibody (Pierce Biotechnology Inc, Rockford, Ill.) diluted in 10 mM sodium acetate (pH 4.5) was directly immobilized across a CM5 research grade biosensor chip using a standard amine coupling kit according to manufacturer's instructions and procedures at 25 μg/ml. Unreacted moieties on the biosensor surface were blocked with ethanolamine. Modified carboxymethyl dextran surface in flowcell 2 and 4 was used as a reaction surface. Unmodified carboxymethyl dextran without goat anti-mouse IgG in flow cell 1 and 3 was used as the reference surface. For kinetic analysis, rate equations derived from the 1:1 Langmuir binding model were fitted simultaneously to association and dissociation phases of all eight injections (using global fit analysis) with the use of Biaevaluation 4.0.1 software. Purified antibodies or DVD-Ig were diluted in HEPES-buffered saline for capture across goat anti-mouse IgG specific reaction surfaces. Antibodies or DVD-Ig to be captured as a ligand (25 μg/ml) were injected over reaction matrices at a flow rate of 5 μl/min. The association and dissociation rate constants, kₒₙ (M⁻¹s⁻¹) and koff (s⁻¹) were determined under a continuous flow rate of 25 μl/min. Rate constants were derived by making kinetic binding measurements at different antigen concentrations ranging from 10-200 nM. The equilibrium dissociation constant (M) of the reaction between antibodies or DVD-Igs and the target antigen was then calculated from the kinetic rate constants by the following formula: KD=koff/kₒₙ. Binding was recorded as a function of time and kinetic rate constants were calculated.

For assay [2], the target named is T2, Recombinant Human PlGF (human, UniProt P49763-2 21-149, limits assumed).
T2 construct: Bought reagent; also called P1GF
T2 sequence (looked up): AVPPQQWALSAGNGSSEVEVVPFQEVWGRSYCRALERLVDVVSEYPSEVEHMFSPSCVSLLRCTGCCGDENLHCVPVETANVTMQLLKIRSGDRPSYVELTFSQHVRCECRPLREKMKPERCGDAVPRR
The experiment in a line: SPR (Biacore). On the procedure: as §1
Background: In SPR one partner is held on a chip, and binding of the other changes the refractive index at the surface.

Assay [3] deals with T3, IGFR on cells (UniProt P08069 31-1367, limits assumed).
T3 construct: whole, on cells; also called IGF1R
The assay is described as follows: flow cytometry on cells, DVD-Ig at 2 ug/mL. On the procedure: (§2) Stable cell lines overexpressing a cell-surface antigen of interest or human tumor cell lines were harvested from tissue culture flasks and resuspended in phosphate buffered saline (PBS) containing 5% fetal bovine serum (PBS/FBS). Prior to staining, human tumor cells were incubated on ice with (100 μl) human IgG at 5 μg/ml in PBS/FCS. 1−5×10⁵ cells were incubated with antibody or DVD-Ig (2 μg/mL) in PBS/FBS for 30-60 minutes on ice. Cells were washed twice and 100 μl of F(ab′)2 goat anti human IgG, Fcγ-phycoerythrin (1:200 dilution in PBS) (Jackson ImmunoResearch, West Grove, Pa., Cat. #109-116-170) was added. After a 30 minute incubation on ice, cells were washed twice and resuspended in PBS/FBS. Fluorescence was measured using a Becton Dickinson FACSCalibur (Becton Dickinson, San Jose, Calif.).
(§3) The geometric mean is the n root of the multiplication product of n fluorescent signals (a1×a2×a3 . . . an). With log-transformed data the geometric mean is used to normalize the weighting of the data distribution.
On the technique in general: A flow cytometer gives signals particle by particle.

Assay [4] addresses T4, Recombinant Human MSP R/Ron (human, UniProt Q04912 25-571, limits assumed).
T4 construct: Bought reagent
The assay is described as follows: SPR (Biacore). The protocol:
as §1

The target of assay [5] is T3, IGFR on cells. The assay is described as follows: flow cytometry on cells, antibody at 2 ug/mL. On the procedure: as §2, §3
Assay [6] addresses T5, Recombinant Human VEGF 165 (human, UniProt P15692-4 27-191).
T5 construct: Bought reagent
The assay is described as follows: SPR (Biacore). On the procedure: as §1

Assay [7] deals with T6, DLL4 on cells (UniProt Q9NR61 27-685, limits assumed).
T6 construct: whole, on cells
The experiment in a line: flow cytometry on cells, antibody at 2 ug/mL. On the procedure: as §2, §3

Assay [8] has as its target T7, CD-20 on cells (UniProt P11836 1-297, limits assumed).
T7 construct: whole, on cells
T7 sequence (looked up): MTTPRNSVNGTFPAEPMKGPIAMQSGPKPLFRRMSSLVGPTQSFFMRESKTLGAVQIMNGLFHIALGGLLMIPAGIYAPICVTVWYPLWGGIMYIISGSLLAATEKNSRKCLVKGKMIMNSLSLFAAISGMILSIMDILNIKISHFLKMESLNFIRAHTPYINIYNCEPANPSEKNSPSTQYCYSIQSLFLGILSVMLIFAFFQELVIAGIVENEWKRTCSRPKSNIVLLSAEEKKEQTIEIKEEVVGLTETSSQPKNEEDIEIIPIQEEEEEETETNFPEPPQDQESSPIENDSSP
The experiment in a line: flow cytometry on cells, antibody at 2 ug/mL. On the procedure:
as §2, §3

T5 sequence (P15692 other isoform, or with tags, fused parts or gaps limits assumed): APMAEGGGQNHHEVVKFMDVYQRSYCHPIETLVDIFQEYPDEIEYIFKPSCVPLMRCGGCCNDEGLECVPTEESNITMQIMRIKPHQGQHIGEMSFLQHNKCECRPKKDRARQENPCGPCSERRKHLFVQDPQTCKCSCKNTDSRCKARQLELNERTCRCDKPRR

B1: DVD1330 (bispecific antibody, human IgG1, kappa)
heavy: not shown
light: DIQMTQSPSSLSASVGDRVTITCRASQDVSTAVAWYQQKPGKAPKLLIYSASFLYSGVPSRFSGSGSGTDFTLTISSLQPEDFATTYYCQQSYTGTVTFGQGTKVEIKRTVAAPDIQMTQSPSSLSASVGDRVTITCRASEDIYNALAWYQQKPGKAPKLLIYNTDTLHTGVPSRFSGSGSGTDYTLTISSLQPEDFATYFCQHYFHYPRTFGQGTKVEIKRTVAAPSVFIFPPSDEQLKSGTASVVCLLNNFYPREAKVQWKVDNALQSGNSQESVTEQDSKDSTYSLSSTLTLSKADYEKHKVYACEVTHQGLSSPVTKSFNRGEC
notes: DVD-Ig; also called DVD1330H; DVD1330L
In the case of B1, in assay [1], the Kd worked out at 0.38 nM, the koff amounted to 0.0002 s⁻¹ and the kon turned out to be 520000 M⁻¹ s⁻¹.

B2: DVD1332 (bispecific antibody, human IgG1, kappa)
heavy: not shown
light: DIVLTQSPDSLAVSLGERVTMNCKSSQSLLNSGMRKSFLAWYQQKPGQSPKLLIYWASTRESGVPDRFTGSGSGTDFTLTISSVQAEDVAVYYCKQSYHLFTFGSGTKLEIKRTVAAPDIQMTQSPSSLSASVGDRVTITCRASEDIYNALAWYQQKPGKAPKLLIYNTDTLHTGVPSRFSGSGSGTDYTLTISSLQPEDFATYFCQHYFHYPRTFGQGTKVEIKRTVAAPSVFIFPPSDEQLKSGTASVVCLLNNFYPREAKVQWKVDNALQSGNSQESVTEQDSKDSTYSLSSTLTLSKADYEKHKVYACEVTHQGLSSPVTKSFNRGEC
notes: DVD-Ig; also called DVD1332H; DVD1332L
For the molecule B2, in assay [2], the Kd turned out to be 0.055 nM, the koff was determined as 0.00017 s⁻¹ and the kon amounted to 3e+06 M⁻¹ s⁻¹.

B3: DVD1324 (bispecific antibody, human IgG1, kappa)
heavy: not shown
light: DIQMTQFPSSLSASVGDRVTITCRASQGIRNDLGWYQQKPGKAPKRLIYAASRLHRGVPSRFSGSGSGTEFTLTISSLQPEDFATYYCLQHNSYPCSFGQGTKLEIKRTVAAPDIQMTQSPSSLSASVGDRVTITCRASEDIYNALAWYQQKPGKAPKLLIYNTDTLHTGVPSRFSGSGSGTDYTLTISSLQPEDFATYFCQHYFHYPRTFGQGTKVEIKRTVAAPSVFIFPPSDEQLKSGTASVVCLLNNFYPREAKVQWKVDNALQSGNSQESVTEQDSKDSTYSLSSTLTLSKADYEKHKVYACEVTHQGLSSPVTKSFNRGEC
notes: DVD-Ig; also called DVD1324H; DVD1324L
For B3, the “FACS Geometric Mean N-terminal” value in assay [3] was 825.

B4: AB005 (antibody, V domains shown)
VH: EVQLVQSGGGLVKPGGSLRLSCAASGFTFSSYAMHWVRQAPGKGLEWVAVISYDGSNKYYADSVKGRFTISRDNSKNTLYLQMNSLRAEDTAVYYCARFSGWPNNYYYYGMDVWGQGTTVTVSS
VL: DVVMTQSPLSLPVTPGEPASISCRSSQSLLHSNGFNYVDWYLQKPGQSPHLLIYFGSYRASGVPDRFSGSGSGTDFTLKISRVEAEDVGVYYCMQALQTPPWTFGQGTKVEIRR
notes: Parent antibody; also called RON
In the case of B4, in assay [4], the Kd was 20.2 nM, the off-rate constant (koff) is 0.000739 s⁻¹ and the kon came to 36600 M⁻¹ s⁻¹.

B5: AB011 (antibody, V domains shown)
VH: EVQLLESGGGLVQPGGSLRLSCTASGFTFSSYAMNWVRQAPGKGLEWVSAISGSGGTTFYADSVKGRFTISRDNSRTTLYLQMNSLRAEDTAVYYCAKDLGWSDSYYYYYGMDVWGQGTTVTVSS
VL: DIQMTQFPSSLSASVGDRVTITCRASQGIRNDLGWYQQKPGKAPKRLIYAASRLHRGVPSRFSGSGSGTEFTLTISSLQPEDFATYYCLQHNSYPCSFGQGTKLEIKR
notes: Parent antibody; also called IGFR; IGF1R
On to B5, for which the “FACS Geometric Mean” value in assay [5] turned out to be 535.

B6: DVD1334 (bispecific antibody, human IgG1, kappa)
heavy: not shown
light: QAVLTQPSSLSAPPGASASLTCTLRSGFNVDSYRISWYQQKPGSPPQYLLRYKSDSDKQQGSGVPSRFSGSKDASANAGILLISGLQSEDEADYYCMIWHSSAWVFGGGTKLTVLRTVAAPDIQMTQSPSSLSASVGDRVTITCRASEDIYNALAWYQQKPGKAPKLLIYNTDTLHTGVPSRFSGSGSGTDYTLTISSLQPEDFATYFCQHYFHYPRTFGQGTKVEIKRTVAAPSVFIFPPSDEQLKSGTASVVCLLNNFYPREAKVQWKVDNALQSGNSQESVTEQDSKDSTYSLSSTLTLSKADYEKHKVYACEVTHQGLSSPVTKSFNRGEC
notes: DVD-Ig; also called DVD1334H; DVD1334L
Consider B6, for which, in assay [4], the dissociation constant Kd is 5.7 nM, the koff amounted to 0.0067 s⁻¹ and the kon was 1.2e+06 M⁻¹ s⁻¹.

B7: DVD1328 (bispecific antibody, human IgG1, kappa)
heavy: not shown
light: DIQMTQSPSSLSASVGDRVTITCSASQDISNYLNWYQQKPGKAPKVLIYFTSSLHSGVPSRFSGSGSGTDFTLTISSLQPEDFATYYCQQYSTVPWTFGQGTKVEIKRTVAAPDIQMTQSPSSLSASVGDRVTITCRASEDIYNALAWYQQKPGKAPKLLIYNTDTLHTGVPSRFSGSGSGTDYTLTISSLQPEDFATYFCQHYFHYPRTFGQGTKVEIKRTVAAPSVFIFPPSDEQLKSGTASVVCLLNNFYPREAKVQWKVDNALQSGNSQESVTEQDSKDSTYSLSSTLTLSKADYEKHKVYACEVTHQGLSSPVTKSFNRGEC
notes: DVD-Ig; also called DVD1328H; DVD1328L
Take B7: in assay [6], the Kd is 0.08 nM, the koff was found to be 7.7e-05 s⁻¹ and the kon turned out to be 960000 M⁻¹ s⁻¹.

B8: AB015 (antibody, V domains shown)
VH: EVQLVESGGGLVQPGGSLRLSCAASGFTFTDNWISWVRQAPGKGLEWVGYISPNSGFTYYADSVKGRFTISADTSKNTAYLQMNSLRAEDTAVYYCARDNFGGYFDYWGQGTLVTVSS
VL: DIQMTQSPSSLSASVGDRVTITCRASQDVSTAVAWYQQKPGKAPKLLIYSASFLYSGVPSRFSGSGSGTDFTLTISSLQPEDFATTYYCQQSYTGTVTFGQGTKVEIKR
notes: Parent antibody; also called DLL4; AB015VH
Regarding B8, the “FACS Geometric Mean” value in assay [7] was 308. Besides, in assay [1], the Kd turned out to be 0.414 nM, the koff came to 0.000166 s⁻¹ and the kon was 400000 M⁻¹ s⁻¹.

B9: AB047 (antibody, V domains shown)
VH: QVQLQQSGAELVKPGASVKISCKASGYTFTDYYINWVKLAPGQGLEWIGWIYPGSGNTKYNEKFKGKATLTIDTSSSTAYMQLSSLTSEDTAVYFCVRDSPFFDYWGQGTLLTVSS
VL: DIVLTQSPDSLAVSLGERVTMNCKSSQSLLNSGMRKSFLAWYQQKPGQSPKLLIYWASTRESGVPDRFTGSGSGTDFTLTISSVQAEDVAVYYCKQSYHLFTFGSGTKLEIKR
notes: Parent antibody; also called PlGF; AB047VH
B9: in assay [2], the Kd was found to be 0.0282 nM, the dissociation rate constant (koff) was 0.000108 s⁻¹ and the kon was found to be 3.8e+06 M⁻¹ s⁻¹.

B10: AB001 (antibody, V domains shown)
VH: QVQLQQPGAELVKPGASVKMSCKASGYTFTSYNMHWVKQTPGRGLEWIGAIYPGNGDTSYNQKFKGKATLTADKSSSTAYMQLSSLTSEDSAVYYCARSTYYGGDWYFNVWGAGTTVTVSA
VL: QIVLSQSPAILSPSPGEKVTMTCRASSSVSYIHWFQQKPGSSPKPWIYATSNLASGVPVRFSGSGSGTSYSLTISRVEAEDAATYYCQQWTSNPPTFGGGTKLEIKR
notes: Parent antibody; also called CD-20; AB001VH
Regarding B10, the “FACS Geometric Mean” value in assay [8] was 1400.

These data come from US20120014957A1 (AbbVie / Abbott, published 2012).
